Measured values taken from patent publication US20030190705A1 (SUNOL MOLECULAR, published 2003).

B1: hOAT (humanized IgG One Anti-Tissue Factor antibody) (antibody, V domains shown)
VH: QIQLVQSGGEVKKPGASVRVSCKASGYSFTDYNVYWVRQSPGKGLEWIGYIDPYNGITIYDQNLKGKATLTVDKSTSTAYMELSSLRSEDTAVYFCARDVTTALDFWGQGTTVTVSS
VL: DIQMTQSPASLSASVGDRVTITCLASQTIDTWLAWYLQKPGKSPQLLIYAATNLADGVPSRFSGSGSGTDFSFTISSLQPEDFATYYCQQVYSSPFTFGQGTKLEIK
B2: hFAT (humanized IgG Four Anti-Tissue Factor antibody) (antibody, V domains shown)
VH: B1 VH
VL: B1 VL
B3: chimeric anti-tissue factor antibody cH36 (antibody, human IgG4, V domains shown)
VH: EIQLQQSGPELVKPGASVQVSCKTSGYSFTDYNVYWVRQSHGKSLEWIGYIDPYNGITIYDQNFKGKATLTVDKSSTTAFMHLNSLTSDDSAVYFCARDVTTALDFWGQGTTLTVSS
VL: DIQMTQSPASQSASLGESVTITCLASQTIDTWLAWYQQKPGKSPQLLIYAATNLADGVPSRFSGSGSGTKFSFKISSLQAEDFVNYYCQQVYSSPFTFGAGTKLELK

target: T1, lipidated recombinant human tissue factor (e.g., Innovin) (human, UniProt P13726 33-295, limits assumed); assay: cell-based or functional assay

Compared with B1, B2 is higher in “PT Time (in seconds) at 12.9 nM anti-TF antibody” value: 18.9 s for the first, 20.5 s for the second.

B3 was tested, and the “PT Time (in seconds) at 12.9 nM anti-TF antibody” value was 19.8 s.

Going from B1 to B2, the “PT Time (in seconds) at 25.8 nM anti-TF antibody” value rises from 33.7 s to 41.7 s.

In the case of B3, the “PT Time (in seconds) at 25.8 nM anti-TF antibody” value is reported as 40 s.

Compared with B1, B2 is higher in “PT Time (in seconds) at 51.6 nM anti-TF antibody” value: 82.1 s for the first, 94.8 s for the second.

With B3 the “PT Time (in seconds) at 51.6 nM anti-TF antibody” value was 101 s.

target: T1, lipidated recombinant human tissue …; assay: cell-based or functional assay; remark: another data set of the same source

B1 and B2 are the same in “inhibition of TF function (PT assay)” value: roughly 95% for the first, roughly 95% for the second.

In the case of B3, the “inhibition of TF function (PT assay)” value is reported as roughly 95%.
